Measured values reported in publication PMC5856820, “HIV envelope V3 region mimic embodies key features of a broadly neutralizing antibody lineage epitope” (Nature Communications, 2018).

How the values were obtained:
[1] = molecular target: biotinylated Man9-V3 glycopeptide (HIV-1 (strain JRFL)); assay: BLI; BLItz instrument; 0.2 mg/ml biotinylated Man9-V3 immobilised on a streptavidin biosensor; DH270.6 Fab at 40, 15, 5, 1.5 and 0.25 μM; 22 °C; duplicate measurements; kd calculated as the product of ka and KD
[2] = molecular target: DH270.6 Fab S103G (heavy chain) (human); assay: BLI
[3] = molecular target: DH270.6 Fab T98R (heavy chain) (human); assay: BLI
[4] = molecular target: DH270.6 Fab Y48L (light chain) (human); assay: BLI
DH270.6 Fab (human) [5] = assay: BLI; Octet QKe; 0.2 mg/ml His-tagged Fab immobilised on an anti-Human Fab-CH1 biosensor; SOSIP.664 trimers at 0.1 to 0.6 μM; association and dissociation 5 min each; agitation 1000 rpm
DH270.6 Fab (human) [6] = assay: as above; remark: listed apart in the source
DH270.6 Fab (human) [7] = assay: BLI
wild-type 92BR SOSIP.664 = assay: Biolayer interferometry (Octet QKe), Fab binding to wild-type 92BR SOSIP.664 Env trimer; design: species or system HIV-1; settings: for change in Env interaction/affinity of DH270.6 mutant relative to DH270.6: 92BR SOSIP.664 Env trimer; for change in Env interaction/affinity of DH270.6 mutant relative to DH270.6 / Kd: Table 2; for Kd: Fab 0.2 mg/ml immobilized on anti-Human Fab-CH1 biosensor, trimer 0.1 μM to 0.6 μM, association and dissociation 5 min each, 1000 rpm, duplicate measurements, error SEM, read-out: KD of Fab complexes with wild-type 92BR SOSIP.664
Method: (§1) The SOSIP.664 constructs were cloned into the same pVRC-8400 vector described above for Fabs and any mutations were added by site-directed mutagenesis using manufacturer’s protocols (Stratagene). SOSIP.664 constructs were transfected along with a plasmid encoding the cellular protease furin at a 3:1 Env:furin ratio in 293F cells, adapted to grow in suspension from HEK293T cells (ATCC: CRL-3216). The expression construct of furin was kindly provided by Bing Chen (Boston Children’s Hospital, Boston, MA). The cells were allowed to express soluble SOSIP trimers for 5–7 days, and gp120 monomers were expressed for 5 days. Culture supernatants were collected and cells were removed by centrifugation at 3800 × g for 20 min, and filtered with a 0.2 µm pore size filter. Envs were purified by flowing the supernatant over a lectin (Galanthus nivalis) affinity chromatography column overnight at 4 °C. The lectin column was washed with 1× PBS, followed by a second wash with 1× PBS and 0.5 M NaCl and proteins were eluted with 1× PBS supplemented with 0.5 M methyl-α-D-mannopyranoside and 0.5 M NaCl. The eluate was concentrated and loaded onto a Superdex 200 10/300 GL column (GE Life Sciences) pre-equilibrated in a buffer of 2.5 mM Tris, pH 7.5, 350 mM NaCl and 0.02% sodium azide for BLI and in 10 mM Hepes, pH 8.0, 150 mM NaCl and 0.02% sodium azide for negative stain EM, to separate the trimer-size oligomers from aggregates and gp140 monomers and to separate gp120 monomers from aggregates.
Kinetic measurements of Fab binding to the SOSIP.664 constructs were carried out using the Octet QK^e system (ForteBio); 0.2 mg/ml of each His-tagged Fab was immobilized onto a anti-Human Fab-CH1 biosensor until it reached saturation. The SOSIP.664 trimers were tested at concentrations of 0.1 μM to 0.6 μM. A reference sample of buffer alone was used to account for any signal drift that was observed during the experiment. Association and dissociation were each monitored for 5 min. All experiments were conducted in the Octet instrument with agitation at 1000 rpm.
Analyses were performed using nonlinear regression curve fitting using the Graphpad Prism software, version 7.

[8] = test system: R327A mutant of 92BR SOSIP.664 Env; assay: Biolayer interferometry (Octet QKe), DH270.6 Fab binding to R327A mutant 92BR SOSIP.664 Env trimer; design: species or system HIV-1
Method: as §1, with “The eluate was concentrated and loaded onto a Superdex 200 10/300 GL column (GE Life Sciences) pre-equilibrated in a buffer of 2.5 mM Tris, pH 7.5, 350 mM NaCl and 0.02% sodium azide for BLI and in 10 mM Hepes, pH 8.0, 150 mM NaCl and 0.02% sodium azide for negative stain EM, to separate the trimer-size oligomers from aggregates and gp140 monomers and to separate gp120 monomers from aggregates.” left out
Kinetic measurements of Fab binding to the SOSIP.664 constructs were carried out using the Octet QK^e system (ForteBio); 0.2 mg/ml of each His-tagged Fab was immobilized onto a anti-Human Fab-CH1 biosensor until it reached saturation. […] Association and dissociation were each monitored for 5 min. […]

92BR SOSIP.664 trimer = assay: Negative stain EM of DH270.6 Fab-92BR SOSIP.664 complex; design: species or system HIV-1; settings: negatively stained EM; 6 molar excess of Fab, 4 °C, 1.5 h
Method: A 2.5 µl aliquot containing ∼0.01 mg/ml of the Fab-92BR SOSIP.664 complex was applied for 30 s onto a carbon-coated 400 Cu mesh grid that had been glow discharged at 5 mA for 2 min, followed by negative staining with 0.7% uranyl formate for 20 s. Samples were imaged using a FEI Tecnai T12 microscope operated at 120 kV and a magnification of ×52,000, yielding a pixel size of 2.13 Å at the specimen plane. Images were acquired with a Gatan 2 K CCD camera using a nominal defocus of 1500 nm at 10° tilt increments, up to 50°. The tilts provided additional particle orientations to improve the image reconstructions.
Particles were picked semi-automatically using EMAN2 and put into a particle stack. Initial, reference-free, two-dimensional (2D) class averages were calculated, and particles corresponding to complexes (with three Fabs bound) were selected into a substack for determination of an initial model. The initial model was calculated in EMAN2 using threefold symmetry and EMAN2 was used for subsequent refinement using threefold symmetry. In total, 12,941 particles were included in the final reconstruction for the 3D average of 92BR SOSIP.664 trimer complex with DH270.6. The resolution of the final model was estimated using a Fourier Shell Correlation (FSC) cut-off of 0.5. […]

[9] = test system: HIV-1 (autologous and heterologous viruses); settings: cited from earlier work
Text: A synthetic V3-loop glycopeptide (“Man9-V3”), described recently, presents the conformational epitopes needed for the binding of N332 glycan-dependent bnAbs[24], [25]. The peptide design derives from the JRFL mini-V3 gp120 outer domain, used previously for determining a crystal structure with the Fab of bnAb PGT128[9]. The synthetic V3 glycopeptide, which has Man9 glycans (Man9GlcNAc2) at N332 and N301[24] and a 14-residue tip deleted, was used to identify the V3-glycan bnAb DH270.6 (12.9% mutated nucleotides and 71% neutralization breadth[12]) by labeling the B-cell receptor (BCR) on cells fr ... || We describe here a high-resolution crystal structure of “Man9-V3” bound with the single chain variable fragment (scFv) of the N332-glycan dependent bnAb, DH270.6. We have also determined a structure of the Fab of a clonally related member of this lineage, DH270.3 (11.8% mutated nucleotides and 42% neutralization breadth), in complex with a synthetic Man9 glycan. These clonally related antibodies have similar numbers of mutation, but their neutralization breadth and potency differ substantially. Through structural analysis of these two related antibodies, we can account for differences in b ... || Somatic hypermutation is biased by the preference of the activation-induced cytidine deaminase (AID) for certain microsequence motifs (“hot spots”)[28], [29]. […]

DH270.6 Fab
Kd [1]: 7000 nM

92BR SOSIP.664 Env trimer, wild type (complex)
Kd [2]: 19 nM | Kd [3]: 46 nM | Kd [4]: 44 nM | Kd (DH270.6 Fab (human) [5]): 11 nM | Kd (DH270.6 Fab (human) [6]): 2.76 nM

92BR SOSIP.664 Env trimer, R327A mutant (complex)
Kd (DH270.6 Fab (human) [7]): 7.64 nM

DH270.6 S103GH: DH270.6 Fab with heavy-chain S103G mutation
change in Env interaction/affinity of DH270.6 mutant relative to DH270.6 (wild-type 92BR SOSIP.664; Fig. 4b): weakens the Env interaction twofold | Kd (wild-type 92BR SOSIP.664): 19 ± 1 nM

DH270.6: V3-glycan broadly neutralizing antibody of DH270 lineage from HIV-1 infected donor CH848
Kd (wild-type 92BR SOSIP.664): 11 ± 1 nM | affinity of Env R327A mutant for DH270.6 relative to wild-type ([8]; Fig. 4a, compared with wild-type counterpart): only a slightly lower affinity | Kd ([8]; read-out: KD, R327A mutant 92BR SOSIP.664 Env tested with DH270.6 Fab, Fig. 4a legend, Fab immobilized on anti-Human Fab-CH1 biosensor, trimer 0.1 μM to 0.6 μM): 7.64 nM | DH270.6 Fabs bound per trimer (92BR SOSIP.664 trimer): three | neutralization breadth [9]: 71%

DH270.6 T98RH: DH270.6 Fab with heavy-chain T98 reverted to Arg
binding with 92BR SOSIP.664 Env trimer (wild-type 92BR SOSIP.664; reversion mutant of DH270.6, Fig. 4b): only negligible residual binding

B1: DH270.6 Y48LL: DH270.6 Fab with light-chain Y48 mutated to leucine, as in the UCA (antibody, V domains shown)
VH: QVQLVQSGAQMKNPGASVKVSCAPSGYTFTDFYIHWLRQAPGQGLQWMGWMNPQTGRTNTARNFQGRVTMTRDTSIGTAYMELRSLTSDDTAIYYCTTGGWISLYYDSSYYPNFDHWGQGTLLTVSS
VL: QSALTQPASVSGSPGQSITISCTGTKYDVGSHDLVSWYQQYPGKVPKLMIYEVNKRPSGVSNRFSGSKSGNTASLTISGLRAEDEADYYCCSFGGSATVVCGGGTKVTVL
change in Env interaction/affinity of DH270.6 mutant relative to DH270.6 (wild-type 92BR SOSIP.664; Fig. 4b): fourfold lower affinity | Kd (wild-type 92BR SOSIP.664): 44 ± 2 nM
